This note sets out measurements from US20120316071A1 (published 2012).

For test [1], the target named is T1, Recombinant Human DLL4 (delta-like protein 4) (human, UniProt Q9NR61 27-524).
T1 construct: also called rHuman DLL4; Delta-like 4
Briefly: ELISA, Fab on plate-coated DLL4.

For test [2], the target named is T1, Recombinant Human DLL4 (delta-like …). Kind of test: ECL (MSD) binding assay, Fab on immobilized DLL4.
Test [3] deals with T2, rHuman ErbB2/Fc Chimera, CF (R&D Systems Cat#1129-ER) (human, UniProt P04626 23-652).
T2 construct: Bought recombinant protein; also called human epidermal growth factor 2 receptor; Fc part of the bought chimera not given
Briefly: ECL multispot (MSD) binding assay, antigen spotted on plate, Fab 0.04 uM.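 Also: purified Fab incubated 1 h at 20 °C on antigen spots, detected via TAG-labelled antibody, ECL read against each well's blank, with signal-to-blank of at least 4 scored as binder.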

Test [4] concerns the target T3, rHuman EGF R/Fc Chimera, CF (R&D Systems Cat#344-ER) (human, UniProt P00533 25-645).
T3 construct: Bought recombinant protein; also called epidermal growth factor receptor; Fc part of the bought chimera not given
Described as above.

The target in test [5] is T4, rHuman Notch-1/Fc Chimera, CF (R&D Systems Cat#3647-TK) (human, UniProt P46531 19-526).
T4 construct: Bought recombinant protein; Fc part of the bought chimera not given
Described as above.

For test [6], the target named is T5, rHuman CD44/Fc Chimera, CF (R&D Systems Cat#3660-CD) (human, UniProt P16070 21-220).
T5 construct: Bought recombinant protein; Fc part of the bought chimera not given
Described as above.

Test [7] concerns the target T6, rHuman P-Cadherin/Fc Chimera, CF (R&D Systems Cat#861-PC) (human, UniProt P22223 108-654).
T6 construct: Bought recombinant protein; Fc part of the bought chimera not given
The description is as above.

Test [8] deals with T7, rHuman Erythropoietin R/Fc Chimera, CF (R&D Systems Cat#963-ER) (human, UniProt P19235 25-250).
T7 construct: Bought recombinant protein; also called EPO R; EPO R/Fc; Fc part of the bought chimera not given
T7 sequence (looked up): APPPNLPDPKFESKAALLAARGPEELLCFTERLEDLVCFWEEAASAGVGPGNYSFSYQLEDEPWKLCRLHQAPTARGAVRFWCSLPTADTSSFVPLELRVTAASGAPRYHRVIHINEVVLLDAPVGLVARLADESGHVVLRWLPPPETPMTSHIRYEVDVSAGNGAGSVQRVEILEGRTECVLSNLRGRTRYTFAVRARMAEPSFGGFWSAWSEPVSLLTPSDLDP
Described as above.

The target of test [9] is T8, Recombinant Human DLL4 (R&D Systems Cat#1506-D4/CF) (human, UniProt Q9NR61 27-524).
T8 construct: Bought recombinant protein; also called delta-like protein 4; rHuman DLL4
The description is as above.

Test [10] concerns the target T9, Recombinant Human DLL4 (R&D Systems Cat#1506-D4/CF) (human, UniProt Q9NR61 27-524).
T9 construct: also called rHuman DLL4; delta-like protein 4
Kind of test: ECL (MSD) binding assay, Fab on immobilized recombinant human DLL4.

B1: Fab VH5-51_IGHD5-18*01>3_IGHJ4*01 G100K/G104T G35T & V3-4_IGLJ1*01 (Fab, V domains shown)
VH: EVQLVQSGAEVKKPGESLKISCKGSGYSFTSYWITWVRQMPGKGLEWMGIIYPGDSDTRYSPSFQGQVTISADKSISTAYLQWSSLKASDTAMYYCARRKYSYTYDYFDYWGQGTLVTVSS
VL: QTVVTQEPSFSVSPGGTVTLTCGLSSGSVSTSYYPSWYQQTPGQAPRTLIYSTNTRSSGVPDRFSGSILGNKAALTITGAQADDESDYYCVLYMGSGISYVFGTGTKVTVL
notes: Fab from E. coli: VH-CH1 from Plasmid A with His6 and Flag tags, VL with lambda CL from Plasmid E; also called KT G35T
B1: the “ELISA (Signal-Noise)” value in test [1] worked out at 0.07. The “ECL signal” value in [2] was determined as 14500.

B2: Fab VH5-51_IGHD5-18*01>3_IGHJ4*01 G100K/G104T (H:KT) & V3-4_IGLJ1*01 S99A (Fab, V domains shown)
VH: EVQLVQSGAEVKKPGESLKISCKGSGYSFTSYWIGWVRQMPGKGLEWMGIIYPGDSDTRYSPSFQGQVTISADKSISTAYLQWSSLKASDTAMYYCARRKYSYTYDYFDYWGQGTLVTVSS
VL: QTVVTQEPSFSVSPGGTVTLTCGLSSGSVSTSYYPSWYQQTPGQAPRTLIYSTNTRSSGVPDRFSGSILGNKAALTITGAQADDESDYYCVLYMGSGIAYVFGTGTKVTVL
notes: Fab; Expressed from Plasmid A (CH1, His6 and Flag tags) and Plasmid E (lambda CL); also called KT & S99A
Regarding B2, the ECL signal was 1320 in test [3]; 956 in test [4]; 674 in [5]; 670 in test [6]; 500 in test [7]; 693 in test [8]. For the same molecule, the ECL signal in test [9] came to 18200.

B3: Fab VH5-51_IGHD5-18*01>3_IGHJ4*01 G100K/G104T (H:KT) & V3-4_IGLJ1*01 Y93A (Fab, V domains shown)
VH: EVQLVQSGAEVKKPGESLKISCKGSGYSFTSYWIGWVRQMPGKGLEWMGIIYPGDSDTRYSPSFQGQVTISADKSISTAYLQWSSLKASDTAMYYCARRKYSYTYDYFDYWGQGTLVTVSS
VL: QTVVTQEPSFSVSPGGTVTLTCGLSSGSVSTSYYPSWYQQTPGQAPRTLIYSTNTRSSGVPDRFSGSILGNKAALTITGAQADDESDYYCVLAMGSGISYVFGTGTKVTVL
notes: Fab; Expressed from Plasmid A (CH1, His6 and Flag tags) and Plasmid E (lambda CL); also called KT & Y93A
Turning to B3, the ECL signal in [5] stood at 725; in [6] it was 700; in test [7] it was 497; in test [8], 602; in [9], 8110.

B4: Fab VH5-51_IGHD5-18*01>3_IGHJ4*01 G100K/G104T/G24L/S28R/G35V (KT LRV) & V3-4_IGLJ1*01 (Fab, V domains shown)
VH: EVQLVQSGAEVKKPGESLKISCKLSGYRFTSYWIVWVRQMPGKGLEWMGIIYPGDSDTRYSPSFQGQVTISADKSISTAYLQWSSLKASDTAMYYCARRKYSYTYDYFDYWGQGTLVTVSS
VL: QTVVTQEPSFSVSPGGTVTLTCGLSSGSVSTSYYPSWYQQTPGQAPRTLIYSTNTRSSGVPDRFSGSILGNKAALTITGAQADDESDYYCVLYMGSGISYVFGTGTKVTVL
notes: Tested as Fab; CH1 with His6/Flag tags (plasmid A) and lambda CL (plasmid E) come from the expression vectors
As for B4, the “ECL signal” value in test [10] was determined as 15300.

B5: Fab VH5-51_IGHD5-18*01>3_IGHJ4*01 G100K/G104T (H:KT) & V3-4_IGLJ1*01 M94A (Fab, V domains shown)
VH: EVQLVQSGAEVKKPGESLKISCKGSGYSFTSYWIGWVRQMPGKGLEWMGIIYPGDSDTRYSPSFQGQVTISADKSISTAYLQWSSLKASDTAMYYCARRKYSYTYDYFDYWGQGTLVTVSS
VL: QTVVTQEPSFSVSPGGTVTLTCGLSSGSVSTSYYPSWYQQTPGQAPRTLIYSTNTRSSGVPDRFSGSILGNKAALTITGAQADDESDYYCVLYAGSGISYVFGTGTKVTVL
notes: Fab; Expressed from Plasmid A (CH1, His6 and Flag tags) and Plasmid E (lambda CL); also called KT & M94A
Take B5: the ECL signal in test [3] was found to be 1200; in [4], 1130; in test [5] it was 574; in test [6], 633; in test [7] it was 472; in [8] it was 614. For the same molecule, the ECL signal in test [9] was 35300.

B6: Fab VH5-51_IGHD5-18*01>3_IGHJ4*01 G100K/G104T G35V & V3-4_IGLJ1*01 (Fab, V domains shown)
VH: EVQLVQSGAEVKKPGESLKISCKGSGYSFTSYWIVWVRQMPGKGLEWMGIIYPGDSDTRYSPSFQGQVTISADKSISTAYLQWSSLKASDTAMYYCARRKYSYTYDYFDYWGQGTLVTVSS
VL: QTVVTQEPSFSVSPGGTVTLTCGLSSGSVSTSYYPSWYQQTPGQAPRTLIYSTNTRSSGVPDRFSGSILGNKAALTITGAQADDESDYYCVLYMGSGISYVFGTGTKVTVL
notes: Fab from E. coli: VH-CH1 from Plasmid A with His6 and Flag tags, VL with lambda CL from Plasmid E; also called KT G35V
Regarding B6, the “ELISA (Signal-Noise)” value in test [1] stood at 0.09. Also, the “ECL signal” value in test [2] was 21200.

B7: Fab VH5-51_IGHD5-18*01>3_IGHJ4*01 G100K/G104T G35A & V3-4_IGLJ1*01 (Fab, V domains shown)
VH: EVQLVQSGAEVKKPGESLKISCKGSGYSFTSYWIAWVRQMPGKGLEWMGIIYPGDSDTRYSPSFQGQVTISADKSISTAYLQWSSLKASDTAMYYCARRKYSYTYDYFDYWGQGTLVTVSS
VL: QTVVTQEPSFSVSPGGTVTLTCGLSSGSVSTSYYPSWYQQTPGQAPRTLIYSTNTRSSGVPDRFSGSILGNKAALTITGAQADDESDYYCVLYMGSGISYVFGTGTKVTVL
notes: Fab from E. coli: VH-CH1 from Plasmid A with His6 and Flag tags, VL with lambda CL from Plasmid E; also called KT G35A
Turning to B7, the “ELISA (Signal-Noise)” value in test [1] turned out to be 0.06. Moreover, in test [2], the “ECL signal” value is 19700.
